# Reference: paper PMC9915066
# Biological target: SpyTag-fused glucose dehydrogenase V149C/G190C (Streptococcus pyogenes | Aspergillus flavus)
substance,measurement,value
CYTc-SpyCatcher,"Imax^app (nA): direct electron transfer current of the complex-immobilized gold electrode on successive glucose addition, chronoamperometry at +400 mV vs. Ag/AgCl; ST-GDH alone hardly gave a response",55 nA
